Reference: US20030082683A1

Target: hIK1 intermediate conductance, calcium-activated potassium channel (human) (UniProt O15554)
Assay: cell-based or functional assay

hIK1 intermediate conductance, calcium-activated potassium channel (human), sequence (O15554 other isoform, or with tags, fused parts or gaps): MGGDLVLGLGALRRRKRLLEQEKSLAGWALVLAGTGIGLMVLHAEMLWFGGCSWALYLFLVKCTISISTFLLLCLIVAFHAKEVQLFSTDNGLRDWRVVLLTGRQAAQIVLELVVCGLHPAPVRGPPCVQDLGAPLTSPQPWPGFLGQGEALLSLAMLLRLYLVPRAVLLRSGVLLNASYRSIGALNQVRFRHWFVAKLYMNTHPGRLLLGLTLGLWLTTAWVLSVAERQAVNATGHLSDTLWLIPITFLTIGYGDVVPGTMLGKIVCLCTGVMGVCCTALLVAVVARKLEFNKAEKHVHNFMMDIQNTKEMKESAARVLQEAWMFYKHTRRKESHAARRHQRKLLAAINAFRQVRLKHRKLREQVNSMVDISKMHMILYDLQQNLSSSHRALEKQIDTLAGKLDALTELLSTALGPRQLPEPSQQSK
iberiotoxin, sequence (P24663 whole entry): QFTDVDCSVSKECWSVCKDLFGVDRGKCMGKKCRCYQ

iberiotoxin (from UniProt P24663 1-37) (peptide)
percent block of hIK1 current at 50 nM IBX: 15%
